Assay: yeast display, Sf9 membrane polyspecificity reagent, FACS + sequencing; frameworks hold sequencing errors
Procedure, shortened: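 Genes from sorted yeast were amplified by colony PCR, read by MiSeq 2 × 250 sequencing and filtered on CDR length. These cells carried a synthetic nanobody library in Saccharomyces cerevisiae BJ5465 and were sorted by FACS into low and high (top ~1%) gates on anti-HA and streptavidin fluorescence. Polyreactivity is labelled according to the gate of origin.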

Row | Sequence | polyreactivity (PSR sort gate)
1 | QVQLVESGGGLVQAGGSLRLSCAASGSIFWWYTMGRYRQAPGKERELVAAITWNADGTYYADSVKGRFTISRDNAKNTVYLQMNSLKPEDTAVYYCAADQYYLDWGGGYDYWGQGPQVTVSS | low polyreactivity
2 | QVQLVESGGGLVQAGGSLRLSCAASGSIFRYNAMGWYRQAPGKERELVAAITSGDSTYYADSVKGRFTISRDNAKNTVYLQMNSLKPEDTAVYYCAVTTWANTQWEDYWGHGTQVTVSS | low polyreactivity
3 | QVQLVESGGGLDQAGGSLRLSCAASGLTFATYAMGWYRQAPGKERELVAAINGRGASTNYADSVKGRFTISRDNAKNTVYLKMNSLKPEDTAVYYCASRLYRRNKYVLFDYWGQGTQVTVSS | high polyreactivity
4 | QVQLVESGGGLVQAGGSLRLSCAASGGTFQINAMGWYIQAPGKERELVAAISRSGGSTSYADSVKGRFTISRDNAKNTVYLQMNSLKPQDTAVYYCNKRVRATAWYDYWGQGTQVTVSS | high polyreactivity
5 | QVQLVESGGGLVQAGGSLRLSCAASGRIFGSYAMGWYRQAPGKERELVATIRRSGGRTYYADSVKGRFTISRDNAKNTVYLQKTSLKPADTAVYYCAKDEWGNIRHERDYWGQGTQVTVSS | low polyreactivity
6 | QVQLVESGGGLVQAGGSLRLSCAASGSIFLNNAMGWYRQAPGKERELVAAITRNVGSTYYADSVKGRFTISRDNAKNTVYLQMNSLKPEDTAVYYCAADRRRRYDYWGQGTQVTVSS | low polyreactivity
7 | QVQLEESGGGLVQAGGSLRLSCAASGRTFYHYAMGWYRQAPGKERELVAGITDGTITTDADSVKGRFTISRDNAKNTVYLQMNSLKPEDTAVYYCNVGYSDWWRSWAMDYWGQGTQVTVSS | high polyreactivity
8 | QVQLVESGGGLVQAGGSLRLSCAASGRTFYPYVMGWYRQSPGKERELVASISWSGGSTYYADSVKGRFTFSRDNAKNSVYLQMNSLKPEDTAVYYCAALWPYGYWGQGTQVTVSS | low polyreactivity
9 | QLQHVESGRGLVQAGGSLRLSCADSGRTYGGYDMGWYRQATVKERELVAAISYSGGSTYYADSVKGRFTISRDNAKNTVYLEMNSLKPEDTAVFYCAADGYDAYYWGQGTQVTVSS | low polyreactivity
10 | QVQLVESGGGLVQAGGSLRLSCAASGFTVDLYAMGWYRQAPGKERELVAAITSSGGSTYYADSVKGRFTISRDNAKNTVYLQMNSLTPEDTAVYYCAVAYSSHTSYYSWGQGTQVTVSS | low polyreactivity
11 | QVQLVESGGGLVQAGGSLRLSCASSGHIFTRNAMGWYIQAPGKERELVAAISRTGGSTYYADSVKGRFTISRDNAKNTVYLQMNSLKPEDTAVYYCNARGTYTSRRGYDYWGQGTQVTVSS | high polyreactivity
12 | QVQLVESGGGLVQAGGSLRLSCAASGFTFGVNAMGWYRQAPGKERELVAAISSSGGRTYYADSVKGRFTISRDNAKNTVYLQMNSLKQEDTAVYYCAARYVYTRGGPLKRDYWGQGTQVTVSS | high polyreactivity
13 | QVQLVESGGGLVQAGGSLRLSCAASGFIFVGYAMGWYRQAPGKERELVAAISYSGGRTYYADSVKGRFTISRDNAKNTVYLQMNSLKPEDTAVYYCAAQSRYGGKFYYWGQGTQVTVSS | high polyreactivity
14 | QVQLVESGGGLVQAGGSLRLSCAPSGSIFQSYAMGWYRQAPGKEREMVAAITRSGGRTYYADSVKGRFTISRDNAKNTVYLQMNSLKPEDTAVYYCAAFGWGYGYWGQGTQVTVSS | high polyreactivity
15 | QVQLVESGGGLVQAGGSLRLSCAASGSTFRGNAMGWYRQAPGKERELVATISRSNGGSTYYADSVKGRFTISRDIAKNTVYLQMNSLKPEDTEVYYCAARSYIGISTYGYWGLGTQVTVSS | low polyreactivity
16 | QVQIVESGGGLVQAGGSLRLSCAASGIIFVRYDIGWYRPAPGKERELVAAISWSGGRTYYADSVKGRFTISRDNAKNTVYLQMNSLKPEDTEVYYCNAKGSYWWYQKDYWGQGTQVTVSS | high polyreactivity

Row | Sequence | polyreactivity (PSR sort gate)
17 | QVQLEESGGGLVQAGGSLRLSCAASGRIFSRYAMGWYRQAPGKERELVAAITQSGTSTYYADSVKGRFTISRDNAKNTVYLQMTSLKPEDTAVYYCNAYRQYRYDYWGQGTQVTVSS | low polyreactivity
18 | QVQLVESGGGLVQAGGSLRLSCAASGSIFSVNSMGWYRPAPGKERELVATIRTGDSTNYADSVKGRFTISRDNAKNTVYLQMNSLKPEDTAVYYCAAEWSSLNFDYWGHGTQVTVSS | low polyreactivity
19 | QVQLVESGGGLVQAGGSLRLSCAASGSIFYVYAMGWYIQAPGKERELVASIRWIGDRTYYADSVKGRFTISRDNAKNTVYLQMNSLKPEDTAVYYCAADPRYYGYYYLTPRYYYWGQGTQVTVSS | high polyreactivity
20 | QVQLVESGAGLVQAGASLRLSCDASAFIYVTYAMGWYRQAPGKEMELVAAITNSGGTTYYADSVKGRFTISRDNAKNTVYLQMNSLKPEDTAVYYCNKPYGGETAHREFDYWGQGTQVTVSS | low polyreactivity
21 | QVQLVESGGGLVQAGGSLRLSCAASGRTFVYYAMGWYRQAPGKERELVAAISSRGGSTYYADTVKGRFTISRDYAKNSVYLQMYSLKPEDTAVYYCAAVIGPERPTSPFDFWGQGTQVTVSS | high polyreactivity
22 | QVQLVESGGGLVQAGGSLRLSCAASGFTFWYYAMGWYRQAPGKEREFVASISWNGGRTYYADSVKGRITISRDNAKNTVYLQMNSLKPEDTAVYYCATRVIYSFTDLKGDYWGQGTLVTVSS | high polyreactivity
23 | QVQLVETGGGLVQAGGSLRLICAASGRIFTWYAMGWYRQGPGKERELVATNSYNGGRTYYADSVKGRFTISRDNAKNTVYLQMNSLKPEDNAVYYCNTVPVGSVSHGLDSRFGYWGQGTQVTVSS | high polyreactivity
24 | QDQLVESGGGLVQAGGSLRLSCAASGSTFAYYAMGWYRQAPGKERELVAAITIDGRTSYADSVKGRFTISRDNAKNTVYLQMISLNQVDTAVYYCARGYFPYGYPWRWGYDRFDYWGQGTQVTVSS | low polyreactivity
25 | QVHLVESGGGLVKAGGSLRLSCAASGLTFSYYARGWSRQPPGKEMELVAANSWSGGSTYYADSVKGRFTISRDNAKNTVYLQMNSLKPEDTAVYDCAVRPSDGVIFSKGYDHWGQGTQVTVSS | low polyreactivity
26 | QVQLVESGGGLVQAGGSLRLSCAASGGIFYLYVMGWYRQAPGKERELVAAITSRGGRTYYADSVKGRFTISRDNAKNTVYLQMNSLKPEDTAVYYCNASQSDIFDYDYWGQGTQVTVSS | low polyreactivity
27 | QVQLVESGGGLVQAGGSLRLSCAASGSTYIVYAMGWYRQAPGKERELVAAIRGRGGSTYYADSVKGRFTISRDNAKNTVYLQMNSLKPEVTAVYYCAARGISPLEMYYWGQGTQVTVSS | high polyreactivity
28 | QVQLVESGGGLVQAAGSLRLSSAASGSIFDANANGWYRQPPGKERELVAAITSGGSTYYADSVKGRFTISRVNAKNTVYLQMNSLKPEDTAVYYCAAQYYDYKTTYDYWGKGTQVTVSS | high polyreactivity
29 | QVQLVESGGGLVQAGGSLRLSCAAYGRIFSYYAMGWYRQAPGKERELVAASSGNGGSTYYADSVKGRFTISRDHAKNTVYLQMNSLKPEDTAVYYCAAVWWSSDWASLYPYSYDHWGQVTQVTVSS | low polyreactivity
30 | HVQLVESGGGFVQAGGSLRLSCAASGITFVKYTMGWYRQAPGKERELVAASSRSDGRTYYADSVKGRFTISRDNAKNSVYLQMNSLKPEDTAVYYCNAVYGVIGKGYNYWGQGTQVTVSS | high polyreactivity
31 | QVQLVESGGGLVQAGGSLRLSCAASGFTFTRYTMGWYRQAPGKERELVAHITSGDSTNYADSVKGRFTISRDNAKNTVYLQKNSLKPEDTAVYYCNAEVKGFFYDYDYWGQGTQVTVSS | low polyreactivity
32 | QVQLVESGGGLVQAGGSLRLSCAASGRTFGIYAMGWYRQAPGKERELVAAITGRGGSTHYADSVKGRFSISRDNAKNTVYLQMNSLKPEDTAVYYCAADYRYNRGITSNKDYDYWGQGTQVTVSS | low polyreactivity

From the nanobody polyreactivity screen of Harvey et al. (2022)
